Experimental data: PMC12013513 (2025)

B1: GST-ANI-1^C-term (681-1159 AA) [C. elegans] / 10xHis-RHO-1^WT (wild type RHO-1, 1-188 AA) [C. elegans] (parent complex)
chain 1: DDDATTQFPVPERSRKSSSQLAYSVSFYRKIQRDRNEESSTVLAGPVISQISPSAPPMSSSLTSQQKLRQLTTGPANGARIVESAKDAHDRIKRAIQVEEQLVAQSKRAMILARDKPSFRGSREEFEAQWAMLRHVEKHRALLTEYDRLKRDGPRIIDGPRGTITVSQLSVNMARDYVSANIASSKKSDEVFYFAAILRYGEQVDVSKMVTSDGGLNRRGVLEFPVPLMLTGIPPDFRATVEIYGQRSMRESTSHEDKYKLKNSTFKAKTRNTFLGGGSTSSANQSLFVDPAASSSSTSSTTSNFNLLGTFSFDINCPGKHLYNMSHTVYPLEGITQMKVRKQAIDGADITYHGFLSMYQRTGEGLGSWTRYWCALENGEMKFWKQPEDEGTKGYTALMDLSTCCRSEGASVVEDICPFPNSFHIDVWAPKMDTSDPRGIERLRVMLAADTAQDLQTWLSLINSTSKQLCTWRNPIVNQ
chain 2: not shown

Variants of: B1
Experiment: pull-down; parent: 14; read off a plot

Row | response | Variant
1 | ~17 % of Bound RHO-1 | chain 1 A109D, chain 1 E127K
